This is an account of results in publication PMC5634496 (Nature Communications, 2017).

Data set [1] deals with the molecule itself. The data set can be described thus: native gel or EMSA; proteins purified on anti-Flag M2 magnetic beads, eluted, resolved on 10% native gel, immunoblot with Flag antibody. In general terms: In EMSA bound probe runs differently from free probe, usually more slowly.
The target in a further data set is T1, GST-Ubc13 (UniProt P61088 1-152).
T1 construct: Ubc13 (UBE2N), cDNA in pGEX-4T-1; The end of GST is read from the printed name GST-Ubc13; also called UBE2N; source: E. coli BL21(DE3/pLys), purified (glutathione sepharose beads); not shown: GST, N-terminal, kept
T1 sequence (looked up): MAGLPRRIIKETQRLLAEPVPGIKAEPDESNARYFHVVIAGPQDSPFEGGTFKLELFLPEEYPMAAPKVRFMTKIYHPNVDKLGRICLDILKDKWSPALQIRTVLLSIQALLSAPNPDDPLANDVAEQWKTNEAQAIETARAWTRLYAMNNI
In words: pull-down; purified GST-Ubc13 (or GST) mixed with purified TRAF6 fragments and glutathione sepharose beads in lysis buffer A (20 mM Tris-HCl pH 7.4, 150 mM NaCl, 0.5% NP-40, 10% glycerol), 4 °C, 60 min; immunoblot. Particulars: both partners purified. (In western blotting, separated proteins are transferred to a membrane and probed.)

B1: TRAF6 mutant M5 (deletion of amino acids 313-319), Flag-tagged (natural protein, mouse, UniProt P70196-1 1-530, looked up)
chain: MSLLNCENSCGSSQSSSDCCAAMAASCSAAVKDDSVSGSASTGNLSSSFMEEIQGYDVEFDPPLESKYECPICLMALREAVQTPCGHRFCKACIIKSIRDAGHKCPVDNEILLENQLFPDNFAKREILSLTVKCPNKGCLQKMELRHLEDHQVHCEFALVNCPQCQRPFQKCQVNTHIIEDCPRRQVSCVNCAVSMAYEEKEIHDQSCPLANIICEYCGTILIREQMPNHYDLDCPTAPIPCTFSVFGCHEKMQRNHLARHLQENTQLHMRLLAQAVHNVNLALRPCDAASPSRGCRPEDPNYEETIKQLESQIRELTAKMETQSMYVGELKRTIRTLEDKVAEMEAQQCNGIYIWKIGNFGMHLKSQEEERPVVIHSPGFYTGRPGYKLCMRLHLQLPTAQRCANYISLFVHTMQGEYDSHLPWPFQGTIRLTILDQSEALIRQNHEEVMDAKPELLAFQRPTIPRNPKGFGYVTFMHLEALRQGTFIKDDTLLVRCEVSTRFDMGGLRKEGFQPRSTDAGV
notes: TRAF6, mouse, mutant M5: one complete heptad unit of the CC domain deleted; they may differ; also called TRAF6-M5; source: co-IP: Flag-tagged with Myc-tagged TRAF6 WT
For the molecule B1, the binding result in data set [1] is “binds”.

B2: CC-Flag (TRAF6 coiled-coil domain) (domain or fragment, mouse, UniProt P70196-1 296-400, looked up)
chain: CRPEDPNYEETIKQLESRLVRQDHQIRELTAKMETQSMYVGELKRTIRTLEDKVAEMEAQQCNGIYIWKIGNFGMHLKSQEEERPVVIHSPGFYTGRPGYKLCMR
notes: TRAF6 CC domain, mouse; the limits 296-400 aa are printed in the methods for the CC domain cloned with an MBP tag for E. coli; The end of Flag is read from the printed name CC-Flag; also called CC domain; CC WT; not shown: Flag, C-terminal, kept
In the case of B2, the binding result in the data set with GST-Ubc13 is “binds”.

B3: TRAF6 mutant M4 (V315A, R316A, H319A), Flag-tagged (natural protein, mouse, UniProt P70196-1 1-530, looked up)
chain: MSLLNCENSCGSSQSSSDCCAAMAASCSAAVKDDSVSGSASTGNLSSSFMEEIQGYDVEFDPPLESKYECPICLMALREAVQTPCGHRFCKACIIKSIRDAGHKCPVDNEILLENQLFPDNFAKREILSLTVKCPNKGCLQKMELRHLEDHQVHCEFALVNCPQCQRPFQKCQVNTHIIEDCPRRQVSCVNCAVSMAYEEKEIHDQSCPLANIICEYCGTILIREQMPNHYDLDCPTAPIPCTFSVFGCHEKMQRNHLARHLQENTQLHMRLLAQAVHNVNLALRPCDAASPSRGCRPEDPNYEETIKQLESRLAAQDAQIRELTAKMETQSMYVGELKRTIRTLEDKVAEMEAQQCNGIYIWKIGNFGMHLKSQEEERPVVIHSPGFYTGRPGYKLCMRLHLQLPTAQRCANYISLFVHTMQGEYDSHLPWPFQGTIRLTILDQSEALIRQNHEEVMDAKPELLAFQRPTIPRNPKGFGYVTFMHLEALRQGTFIKDDTLLVRCEVSTRFDMGGLRKEGFQPRSTDAGV
notes: TRAF6, mouse, mutant M4 in the CC domain; they may differ (MBP fusion, T6RZC background); also called TRAF6-M4; source: co-IP: Flag-tagged with Myc-tagged TRAF6 WT
Regarding B3, the binding result in data set [1] was “binds”.
